Measured values as given in patent US20190031734A1 (CHILDREN S MEDICAL CENTER, published 2019).

Experiments:
[1] = molecular target: T1, CSPG4 endogenous on HeLa cells (human, UniProt Q6UVK1 30-2322); assay: binding to HeLa cells; largely abolished in CSPG4^-/- cells
T1 construct: whole, on cells

[2] = molecular target: T2, FZD2-CRD-Fc, recombinant human protein (ACRO Biosystems) (human, UniProt Q14332 24-190); assay: GST pull-down, immunoblot
T2 construct: domain: cysteine-rich domain (CRD); also called Fc-tagged FZD2-CRD; FZD2-Fc; not shown: Fc tag of the purchased protein

T1 sequence (Q6UVK1 30-2322): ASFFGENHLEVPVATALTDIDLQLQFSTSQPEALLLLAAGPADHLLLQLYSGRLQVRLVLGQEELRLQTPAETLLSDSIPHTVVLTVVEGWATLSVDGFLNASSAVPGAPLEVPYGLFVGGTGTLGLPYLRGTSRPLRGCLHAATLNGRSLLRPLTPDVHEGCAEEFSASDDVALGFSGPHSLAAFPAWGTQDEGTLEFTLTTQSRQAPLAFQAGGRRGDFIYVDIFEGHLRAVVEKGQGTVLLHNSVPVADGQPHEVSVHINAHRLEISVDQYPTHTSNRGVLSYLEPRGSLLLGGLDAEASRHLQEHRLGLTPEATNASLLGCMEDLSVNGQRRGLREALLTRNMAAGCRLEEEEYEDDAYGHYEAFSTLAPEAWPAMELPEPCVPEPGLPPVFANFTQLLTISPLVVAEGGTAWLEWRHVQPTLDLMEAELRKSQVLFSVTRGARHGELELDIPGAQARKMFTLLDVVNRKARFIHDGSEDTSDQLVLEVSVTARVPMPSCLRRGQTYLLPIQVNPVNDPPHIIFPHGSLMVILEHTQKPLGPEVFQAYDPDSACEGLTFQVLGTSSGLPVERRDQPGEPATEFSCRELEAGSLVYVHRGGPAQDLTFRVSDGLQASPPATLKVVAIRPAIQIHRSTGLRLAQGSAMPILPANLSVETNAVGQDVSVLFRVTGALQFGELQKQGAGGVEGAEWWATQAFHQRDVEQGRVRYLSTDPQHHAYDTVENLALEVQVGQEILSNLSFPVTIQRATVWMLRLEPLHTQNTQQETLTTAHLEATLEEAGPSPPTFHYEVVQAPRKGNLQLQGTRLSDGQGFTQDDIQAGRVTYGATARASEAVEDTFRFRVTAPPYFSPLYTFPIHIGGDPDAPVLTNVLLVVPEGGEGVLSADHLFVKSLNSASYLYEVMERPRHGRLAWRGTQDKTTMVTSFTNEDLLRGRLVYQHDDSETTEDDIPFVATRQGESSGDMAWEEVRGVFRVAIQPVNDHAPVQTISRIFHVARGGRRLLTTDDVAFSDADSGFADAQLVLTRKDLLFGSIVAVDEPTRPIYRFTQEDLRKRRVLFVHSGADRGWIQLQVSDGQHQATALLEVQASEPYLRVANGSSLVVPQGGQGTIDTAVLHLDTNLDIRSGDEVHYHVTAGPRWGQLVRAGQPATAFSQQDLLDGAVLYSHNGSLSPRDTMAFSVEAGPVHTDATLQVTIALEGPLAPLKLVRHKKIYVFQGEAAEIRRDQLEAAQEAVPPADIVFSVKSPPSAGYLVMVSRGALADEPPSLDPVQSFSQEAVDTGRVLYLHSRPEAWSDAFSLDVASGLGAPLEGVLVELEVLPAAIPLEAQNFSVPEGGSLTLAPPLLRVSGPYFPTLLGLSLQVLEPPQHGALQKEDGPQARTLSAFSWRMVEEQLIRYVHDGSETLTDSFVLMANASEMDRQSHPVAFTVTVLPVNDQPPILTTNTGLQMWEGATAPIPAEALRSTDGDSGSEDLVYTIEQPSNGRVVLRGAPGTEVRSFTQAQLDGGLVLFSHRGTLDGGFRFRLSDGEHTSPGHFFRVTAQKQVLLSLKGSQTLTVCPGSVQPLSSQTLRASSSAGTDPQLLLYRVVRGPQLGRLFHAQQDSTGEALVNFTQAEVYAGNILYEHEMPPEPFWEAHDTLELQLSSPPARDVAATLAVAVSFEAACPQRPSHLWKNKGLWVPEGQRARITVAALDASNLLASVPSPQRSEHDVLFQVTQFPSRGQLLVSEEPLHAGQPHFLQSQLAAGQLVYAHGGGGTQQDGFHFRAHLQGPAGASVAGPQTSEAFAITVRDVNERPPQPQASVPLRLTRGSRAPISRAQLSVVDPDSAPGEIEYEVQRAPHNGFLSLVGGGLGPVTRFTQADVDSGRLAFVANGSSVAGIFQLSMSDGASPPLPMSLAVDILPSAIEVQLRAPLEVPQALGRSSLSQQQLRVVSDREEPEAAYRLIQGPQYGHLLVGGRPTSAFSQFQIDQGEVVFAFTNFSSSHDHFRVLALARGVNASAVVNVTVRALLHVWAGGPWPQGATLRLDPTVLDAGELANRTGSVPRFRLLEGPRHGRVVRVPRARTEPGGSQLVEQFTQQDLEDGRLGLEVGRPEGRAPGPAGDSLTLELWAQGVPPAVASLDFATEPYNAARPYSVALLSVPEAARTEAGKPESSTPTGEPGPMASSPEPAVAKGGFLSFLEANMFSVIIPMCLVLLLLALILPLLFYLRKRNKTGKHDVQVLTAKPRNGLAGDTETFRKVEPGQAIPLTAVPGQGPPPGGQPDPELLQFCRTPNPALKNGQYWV

| Binder | binding result [1] | binding result [2] |
| --- | --- | --- |
| CROPs fragment of TcdB (TcdB1831-2366) as used in the cell-binding assays (other) MVSGLIYINDSLYYFKPPVNNLITGFVTVGDDKYYFNPINGGAASIGETIIDDKNYYFNQSGVLQTGVFSTEDGFKYFAPANTLDENLEGEAIDFTGKLIIDENIYYFDDNYRGAVEWKELDGEMHYFSPETGKAFKGLNQIGDYKYYFNSDGVMQKGFVSINDNKHYFDDSGVMKVGYTEIDGKHFYFAENGEMQIGVFNTEDGFKYFAHHNEDLGNEEGEEISYSGILNFNNKIYYFDDSFTAVVGWKDLEDGSKYYFDEDTAEAYIGLSLINDGQYYFNDDGIMQVGFVTINDKVFYFSDSGIIESGVQNIDDNYFYIDDNGIVQIGVFDTSDGYKYFAPANTVNDNIYGQAVEYSGLVRVGEDVYYFGETYTIETGWIYDMENESDKYYFNPETKKACKGINLIDDIKYYFDEKGIMRTGLISFENNNYYFNENGEMQFGYINIEDKMFYFGEDGVMQIGVFNTPDGFKYFAHQNTLDENFEGESINYTGWLDLDEKRYYFTDEYIAATGSVIIDGEEYYFDPDTAQLVISE | binds |  |
| GST-tagged CROPs region of TcdB (residues 1831-2366) (other) MVSGLIYINDSLYYFKPPVNNLITGFVTVGDDKYYFNPINGGAASIGETIIDDKNYYFNQSGVLQTGVFSTEDGFKYFAPANTLDENLEGEAIDFTGKLIIDENIYYFDDNYRGAVEWKELDGEMHYFSPETGKAFKGLNQIGDYKYYFNSDGVMQKGFVSINDNKHYFDDSGVMKVGYTEIDGKHFYFAENGEMQIGVFNTEDGFKYFAHHNEDLGNEEGEEISYSGILNFNNKIYYFDDSFTAVVGWKDLEDGSKYYFDEDTAEAYIGLSLINDGQYYFNDDGIMQVGFVTINDKVFYFSDSGIIESGVQNIDDNYFYIDDNGIVQIGVFDTSDGYKYFAPANTVNDNIYGQAVEYSGLVRVGEDVYYFGETYTIETGWIYDMENESDKYYFNPETKKACKGINLIDDIKYYFDEKGIMRTGLISFENNNYYFNENGEMQFGYINIEDKMFYFGEDGVMQIGVFNTPDGFKYFAHQNTLDENFEGESINYTGWLDLDEKRYYFTDEYIAATGSVIIDGEEYYFDPDTAQLVISE |  | no binding (tested: 10 nM FZD2-CRD-Fc) |
